Measured values as given in the supplement of paper PMC9170038.

system: MS2 coat protein; test: apparent KD of MS2 coat protein; higher = weaker reporter binding; details: Eterna round: R107; input ligand: theophylline 20 uM
Description: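 RNA-MaP round R107: designed RNA switches with theophylline, tryptophan, arginine or FMN aptamers are transcribed on-chip within common flanks. They are titrated with SNAP-549-labelled MS2 coat protein in RNA-MaP buffer (100 mM Tris pH 7.5, 80 mM KCl, 4 mM MgCl2), without ligand or with the indicated ligand. Median apparent KD per design.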

In order of rising “apparent KD of MS2 coat protein” value:
1. GUUAUGGACCUGGAUACCAGCUGGUACGAGGGCGGUCUACAUGAGGAUCACCCAUGUGUCAGCCCUUGGCAGCCAGCAACCCGCU [Raquleer]  12.6 nM
2. GCACAACAUGAGGAUCACCCAUGUCGAGAUACCAGAACAUAUAUAUUCCCUUGGCAGCUCACACCUUUAAUGUAAAAUUCUUUGG [theeternabot_sameState_MS2_Theo_A_47]  15.9 nM
3. CUCCGAGGCUAUACUAUCCGCCUCAGUGAUACCAGAAUACCUAUAUUCCCUUGGCAGCAUCACAUGAGGAUCACCCAUGUGCCAU [SSTheo A #14]  16.3 nM
4. ACGACGCAUAGUGAUACCAGUAGAACAUGAGGAUCACCCAUGUCUGUGGCGCUCCGCCUCUGCCCUUGGCAGCACUAUGCGUCAG [SSTheo B #10]  17 nM
5. GAGGGUGGGUCUCUAAUCCGUUUGACGGAUACCAGCGAGAGAUAUCGCCCUUGGCAGCCGACGACAUGAGGAUCACCCAUGUAAA [#06 Exclusion-TheophyllineA]  19.6 nM
6. ACAUGAGGAUCACCCAUGUAAGGUCUUGAUACCAGACGCGAAGUAGUCCCUUGGCAGCAAAUACGUGAGGGUCGCACAUGUGUAA [mcnmullin]  35.9 nM
7. ACAUGAGGAUCACCCAUGUGGCGACUUGAUACCAGACCCGCACUAGUCCCUUGGCAGCAACUACGUGAGGGACACCCAUGUGAAG  41.6 nM
8. ACUAGUUGUGCAGAUACCAGACAUGAGGAUCACCCAUGUUUGGGUUGUUCGCAACUUCCUGUCCCUUGGCAGCUGUACAUCUAGA [Omei Theo B Exc v5]  46.9 nM
9. AGGUGGGUCUGAAGGAGCGCGAUAACAUGAGGAUCACCCAUGUUAAAUGGUACAUGAUACUCGCAGGUAGGUCGCAGUAAAACCA [Same State Arginine B GF 12]  73.1 nM
10. AUGACUUACGGGCGCCAUUUGUAAUAGGAAGGAGCGGCGAGAUAGCCAGGUAGGUCGCCUAUACAUGAGGAUCACCCAUGUCACC [Vegeorbe]  103 nM
11. ACACAUGAGGAUCACCCAUGUUGAGGAACACGAGGACCGGUACGGCCGCCACUCGACACAUGAGGAUCACCCAUGUGAUCACCCA [Same State Tryptophan A 2]  129 nM
12. UUUACAUGAGGAUCACCCAUGUGCCAUGAUACCAGACAUGAAAAUGUCCCUUGGCAGCAUGAAUGAUUCAUAGGAUAAUUAUGGG [Obrany]  146 nM
13. UCGUUUUAGUCGGCCGCCACUGUAUGCAUGUUUAACAUGAGGAUCACCCAUGUCCCGUACUAUUUCAGGACCGGGACGUAAUCGA [JR_SSTryptoB_Sub007]  301 nM
14. GCUGUGAAGUCGGCCGCCACUGGUUAGUUUUACCUCAUGUAACAUGAGGAUCACCCAUGUAAUUUCAGGACCGGGACAACAGCAA [JR_ExcTryptoB_Sub017]  588 nM
15. CCGGUUAGGACGGCCGCCACUGUGGCUACGGUACAUGAGGAUCACCCAUGUUUGUGGUUGAUCUACAGGACCGGGUCCUGACACG [Eronri]  1210 nM

same assay, conditions: Eterna round: R107; input ligand: theophylline 2 mM

In order of falling “apparent KD of MS2 coat protein” value:
1. GCUGUGAAGUCGGCCGCCACUGGUUAGUUUUACCUCAUGUAACAUGAGGAUCACCCAUGUAAUUUCAGGACCGGGACAACAGCAA [JR_ExcTryptoB_Sub017]  853 nM
2. CCGGUUAGGACGGCCGCCACUGUGGCUACGGUACAUGAGGAUCACCCAUGUUUGUGGUUGAUCUACAGGACCGGGUCCUGACACG [Eronri]  806 nM
3. UCGUUUUAGUCGGCCGCCACUGUAUGCAUGUUUAACAUGAGGAUCACCCAUGUCCCGUACUAUUUCAGGACCGGGACGUAAUCGA [JR_SSTryptoB_Sub007]  484 nM
4. UGACAUUGCUCAGAUACCAGACAUGAGCAUCAGCCAUGUACCAAGAGUACAUGUUAAAAUGUCCCUUGGCAGCUGAGCAAUGUCU [Mod of Eli's TheoBX5 #AlternateMS2 v2]  452 nM
5. AGUGACUACAUCUGGAAUUAAGGUAGGGAAGGAGCGCGGUAAGACGCAGGUAGGUCGCCCUACAUGAGGAUCACCCAUGUGAUGU [XARG-A 28]  331 nM
6. GAAUUUAUAUGAAGGAGCGUCGAAAAUGGGUAAACAUGAGGAUCACCCAUGUAAAGGGAACGACAGGUAGGUCGCAUAUGGAUUC [AstromonsSSArgB#26]  219 nM
7. AAAUCAGUCUGAAGGAGCGUCACAUGAGGAUCACCCAUGUACAUGAGGAUCACCCAUGUGUGACAGGUAGGUCGCAGAGGAUACC [Exclusion Arginine B GF 4]  207 nM
8. CCGGCAUGUCGAAGGAGCGUCACAUGAGGAUCACCCAUGUACAUGAGGAUCACCCAUGUGUGACAGGUAGGUCGCGGCGGCCAGG [Exclusion Arginine B GF7]  197 nM
9. ACACAUGAGGAUCACCCAUGUUGAGGAACACGAGGACCGGUACGGCCGCCACUCGACACAUGAGGAUCACCCAUGUGAUCACCCA [Same State Tryptophan A 2]  173 nM
10. AGGUGGGUCUGAAGGAGCGCGAUAACAUGAGGAUCACCCAUGUUAAAUGGUACAUGAUACUCGCAGGUAGGUCGCAGUAAAACCA [Same State Arginine B GF 12]  93.8 nM
11. AUGACUUACGGGCGCCAUUUGUAAUAGGAAGGAGCGGCGAGAUAGCCAGGUAGGUCGCCUAUACAUGAGGAUCACCCAUGUCACC [Vegeorbe]  81.8 nM
12. ACAUGAGGAUCACCCAUGUAAGGUCUUGAUACCAGACGCGAAGUAGUCCCUUGGCAGCAAAUACGUGAGGGUCGCACAUGUGUAA [mcnmullin]  59.8 nM
13. UGGCAGUACAUGGGUUACUGCCAAGGUGAUACCAGCAUCGAAAGAUGCCCUUGGCAGCACCAACAUGAGGAUCACCCAUGUAAUA [(MT)''-(M)'-(T')-(Theo)-(Ms2)_Design1/22_8]  53.9 nM
14. GCGCUCGACAGAAGGAGCGGCGACGUCGGUGUCAGGAGGCACAUGAGGAUCACCCAUGUCAGCCAGGUAGGUCGCUGUCGAUCGC [Arquce]  40.1 nM
15. ACAUGAGGAUCACCCAUGUGGCGACUUGAUACCAGACCCGCACUAGUCCCUUGGCAGCAACUACGUGAGGGACACCCAUGUGAAG  38.2 nM
16. GGCACCAGGAGAAGGAGCGUGAAGACAUGAGGAUCACCCAUGUAGAGGCCCGUACUGGGUUCGCAGGUAGGUCGCUCCUGGUGCC [#1 Same State - Arginine B Attempt #13 (HarryS)]  28.7 nM
17. AGCUCGCGUCCUCAAGCGUCAAAGACGCGUCGAGGACCGGUACGGCCGCCACUCGACCUGAGGAUCACCCAGGUUUAAGCGAGCA [TrypAX 6 #SwitchBubble #AlternativeMS2 #MS2Late #CuTurnoff]  18.1 nM
18. ACAUGAGGAUCACCCAUGUACAUAAGGGAAGGAGCGCGGUGGAACGCAGGUAGGUCGCCCAUAAUAACAAUAAAUAAAUUCAUGU [#04 Same State - Arginine A]  17.5 nM
19. GUUAUGGACCUGGAUACCAGCUGGUACGAGGGCGGUCUACAUGAGGAUCACCCAUGUGUCAGCCCUUGGCAGCCAGCAACCCGCU [Raquleer]  11.9 nM

same assay, conditions: Eterna round: R107; input ligand: tryptophan 2.4 mM

In order of falling “apparent KD of MS2 coat protein” value:
1. UGGCAGUACAUGGGUUACUGCCAAGGUGAUACCAGCAUCGAAAGAUGCCCUUGGCAGCACCAACAUGAGGAUCACCCAUGUAAUA [(MT)''-(M)'-(T')-(Theo)-(Ms2)_Design1/22_8]  247 nM
2. CCGGUUAGGACGGCCGCCACUGUGGCUACGGUACAUGAGGAUCACCCAUGUUUGUGGUUGAUCUACAGGACCGGGUCCUGACACG [Eronri]  247 nM
3. AGUGACUACAUCUGGAAUUAAGGUAGGGAAGGAGCGCGGUAAGACGCAGGUAGGUCGCCCUACAUGAGGAUCACCCAUGUGAUGU [XARG-A 28]  232 nM
4. AAAUCAGUCUGAAGGAGCGUCACAUGAGGAUCACCCAUGUACAUGAGGAUCACCCAUGUGUGACAGGUAGGUCGCAGAGGAUACC [Exclusion Arginine B GF 4]  213 nM
5. GAAUUUAUAUGAAGGAGCGUCGAAAAUGGGUAAACAUGAGGAUCACCCAUGUAAAGGGAACGACAGGUAGGUCGCAUAUGGAUUC [AstromonsSSArgB#26]  197 nM
6. CCGGCAUGUCGAAGGAGCGUCACAUGAGGAUCACCCAUGUACAUGAGGAUCACCCAUGUGUGACAGGUAGGUCGCGGCGGCCAGG [Exclusion Arginine B GF7]  158 nM
7. AGCUCGCGUCCUCAAGCGUCAAAGACGCGUCGAGGACCGGUACGGCCGCCACUCGACCUGAGGAUCACCCAGGUUUAAGCGAGCA [TrypAX 6 #SwitchBubble #AlternativeMS2 #MS2Late #CuTurnoff]  115 nM
8. AUGACUUACGGGCGCCAUUUGUAAUAGGAAGGAGCGGCGAGAUAGCCAGGUAGGUCGCCUAUACAUGAGGAUCACCCAUGUCACC [Vegeorbe]  112 nM
9. UUUACAUGAGGAUCACCCAUGUGCCAUGAUACCAGACAUGAAAAUGUCCCUUGGCAGCAUGAAUGAUUCAUAGGAUAAUUAUGGG [Obrany]  80.9 nM
10. UUACAUGAGGAUCACCCAUGUCAUAAUGAUACCAGAUAGUUGAUGAUCCCUUGGCAGCAUAGUACCUAGACAUGUGAGUCAUAGG [Ab]  76.8 nM
11. UGACAUUGCUCAGAUACCAGACAUGAGCAUCAGCCAUGUACCAAGAGUACAUGUUAAAAUGUCCCUUGGCAGCUGAGCAAUGUCU [Mod of Eli's TheoBX5 #AlternateMS2 v2]  60.1 nM
12. CGAUACGUAACUGAUACCAGUGUACUGACAUGAGGAUCACCCAUGUUGGGUUUUGUUGUACACCCUUGGCAGCAGAAUCGUAUCG [AstrosExyTheB#18]  59.9 nM
13. AGGUGGGUCUGAAGGAGCGCGAUAACAUGAGGAUCACCCAUGUUAAAUGGUACAUGAUACUCGCAGGUAGGUCGCAGUAAAACCA [Same State Arginine B GF 12]  53.1 nM
14. ACCUUACAUGAGGAUCACCCAUGUCGUGAUACCAGAAACCACGUAUUCCCUUGGCAGCACACCCGUGAUGAGAUUGUCGGUUUUG [theeternabot_sameState_MS2_Theo_A_43]  49.2 nM
15. UAAUUCACUAUUCACGGUCCGAUGUUCGAUACCAGAUCAUUUCGAAUCCCUUGGCAGCGAUUAACAUGAGGAUCACCCAUGUAAC [theeternabot_exclusion_MS2_Theo_A_35]  38.6 nM
16. GCGCUCGACAGAAGGAGCGGCGACGUCGGUGUCAGGAGGCACAUGAGGAUCACCCAUGUCAGCCAGGUAGGUCGCUGUCGAUCGC [Arquce]  36.8 nM
17. GGCACCAGGAGAAGGAGCGUGAAGACAUGAGGAUCACCCAUGUAGAGGCCCGUACUGGGUUCGCAGGUAGGUCGCUCCUGGUGCC [#1 Same State - Arginine B Attempt #13 (HarryS)]  29.9 nM
18. ACAUGAGGAUCACCCAUGUAAGGUCUUGAUACCAGACGCGAAGUAGUCCCUUGGCAGCAAAUACGUGAGGGUCGCACAUGUGUAA [mcnmullin]  27.8 nM
19. ACUAGUUGUGCAGAUACCAGACAUGAGGAUCACCCAUGUUUGGGUUGUUCGCAACUUCCUGUCCCUUGGCAGCUGUACAUCUAGA [Omei Theo B Exc v5]  24.3 nM
20. ACAUGAGGAUCACCCAUGUGGCGACUUGAUACCAGACCCGCACUAGUCCCUUGGCAGCAACUACGUGAGGGACACCCAUGUGAAG  21.6 nM
21. GAGGGUGGGUCUCUAAUCCGUUUGACGGAUACCAGCGAGAGAUAUCGCCCUUGGCAGCCGACGACAUGAGGAUCACCCAUGUAAA [#06 Exclusion-TheophyllineA]  16.9 nM
22. ACAUGAGGAUCACCCAUGUACAUAAGGGAAGGAGCGCGGUGGAACGCAGGUAGGUCGCCCAUAAUAACAAUAAAUAAAUUCAUGU [#04 Same State - Arginine A]  16.5 nM
23. GCACAACAUGAGGAUCACCCAUGUCGAGAUACCAGAACAUAUAUAUUCCCUUGGCAGCUCACACCUUUAAUGUAAAAUUCUUUGG [theeternabot_sameState_MS2_Theo_A_47]  13.9 nM
24. CUCCGAGGCUAUACUAUCCGCCUCAGUGAUACCAGAAUACCUAUAUUCCCUUGGCAGCAUCACAUGAGGAUCACCCAUGUGCCAU [SSTheo A #14]  12.2 nM
25. ACGACGCAUAGUGAUACCAGUAGAACAUGAGGAUCACCCAUGUCUGUGGCGCUCCGCCUCUGCCCUUGGCAGCACUAUGCGUCAG [SSTheo B #10]  11.4 nM
26. GUUAUGGACCUGGAUACCAGCUGGUACGAGGGCGGUCUACAUGAGGAUCACCCAUGUGUCAGCCCUUGGCAGCCAGCAACCCGCU [Raquleer]  9.92 nM
